# Data published in a protein production outcome set (Wang et al. 2014).
# Assay: label from the status in PepcDB records
# 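Also: failed if final PepcDB status was selected cloned or expressed and not failed if soluble or beyond.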
row,Sequence,protein production
1,SNSHDGSNFSNKFSAHKDVVEDLLRKDTVGLVTFQDFRARREYLERCAVAEAACQNASRRAEELETKKKRVKRANLSRLSFGDSLEDQEENSVEFAKITRFASSKKANGVGFNTSGQDIVKEPDVFSPKEEGFFGKQNRKIGMDPGVDTSFLPDRDREQEERLERERLKQQWLSEQERVKNEEIDIIYSIWDGRGQRKLLSCKKGTTIAKFLSIVQQKVSTLKHCKVEDLMFIKEDMIIPHHLSFYDLISMKARGKNGSLFCFDVHEDIRIRNDASVEKDDSHAAKVVERRWYERNKHIYPASMWEVFDVSKNYGRVQKDFFGN,failed
2,SPLPVALQTRLAKRGILKHLEPEPEEEIIAEDYDDDPVDYEATRLEGLPPSWYKVFDPSCGLPYYWNADTDLVSWLSPHDPNSVVTKSAKKLRSSNADAEEKLDRSHDKSDRGHDKSDRSHEKLDRGHDKSDRGHDKSDRDRERGYDKVDRERERDRERDRDRGYDKADREEGKERRHHRREELAPYPKSKKAVSRKDEELDPMDPSSYSDAPRGTWSTGLPKRNEAKTGADTTAAGPLFQQRPYPSPGAVLRANAEASRTKQQD,not failed
3,SPMPAGRPRFLRSMALSSQTREWLEKGMPTEAEAGVPIRLQERAANTAPQARAEERHTQPADAAAPHARAERGRTLQAPASTSPLYTGAVPRANRIVQQLVEAGADLANIRTMFRNMLRGEEMILSRAEQNVFLQHFPDMLPCGIDRNSELAIALREALRRADSQQAARAPARTPPRSS,not failed
4,SQSLYQALWNSADVLRSKMDANDYKSYLLGMVFYKYLSDKMLFFVAETMEEETESLDEALAVYRKYYEDEETHEDLLAVITDEMSYAIHPDLTFTALVERVNDGSFQLEDLAQGFRDIEQSDELYENLFEDIDLYSKKLGATPQKQNQTVAAVMKELAVLDVAGHAGDMLGDAYEYLIGQFATDSGKKAGEFYTPQPVAKLMTQIAFLGREDKQGFTLYDATMGSGSLLLNAKRYSRQPQTVVYFGQELNTSTYNLARMNMILHGVPIENQFLHNADTLDEDWPTQEPTNFDGVLMNPPYSAKWSASSGFMDDPRFSPFGKLAPKSKADFAFLLHGYYHLKQDNGVMAIVLPHGVLFRGNAEGTIRKALLEEGAIDTVIGLPANIFFNTSIPTTVIILKKNRTNRDVYFIDASKEFDKGKNQNIMTDAHIEKILNAYKSREDIDKFAHLASFEEIVENDYNLNIPRYVDTFEEEEVEPLTEIVAKINQTNATIESQTASLLDMLGQLHGTTPEADEELKAFVKAFKG,failed
5,SRKVFVGGLPPDIDEDEITASFRRFGPLVVDWPHKAESKSYFPPKGYAFLLFQEESSVQALIDACLEEDGKLYLCVSSPTIKDKPVQIRPWNLSDSDFVMD,not failed
6,SRSRPAGPALLLLLLFLGAAESVRRAQPPRRYTPDWPSLDSRPLPAWFDEAKFGVFIHWGVFSVPAWGSEWFWWHWQGEGRPQYQRFMRDNYPPGFSYADFGPQFTARFFHPEEWADLFQAAGAKYVVLTTKHHEGFTNWPSPVSWNWNSKDVGPHRDLVGELGTALRKRNIRYGLYHSLLEWFHPLYLLDKKNGFKTQHFVSAKTMPELYDLVNSYKPDLIWSDGEWECPDTYWNSTNFLSWLYNDSPVKDEVVVNDRWGQNCSCHHGGYYNCEDKFKPQSLPDHKWEMCTSIDKFSWGYRRDMALSDVTEESEIISELVQTVSLGGNYLLNIGPTKDGLIVPIFQERLLAVGKWLSINGEAIYASKPWRVQWEKNTTSVWYTSKGSAVYAIFLHWPENGVLNLESPITTSTTKITMLGIQGDLKWSTDPDKGLFISLPQLPPSAVPAEFAWTIKLTGVK,failed
7,SSGGKSAQGPEEGGVCITEALITKRNLTFPEDGELSEKMFHTLDELQTVRLDREGITTIRNLEGLQNLHSLYLQGNKIQQIENLACIPSLRFLSLAGNQIRQVENLLDLPCLQFLDLSENLIETLKLDEFPQSLLILNLSGNSCTNQDGYRELVTEALPLLLDLDGQPVVERWISDEEDEASSDEEFPELSGPFCSERGFLKELEQELSRHREHRQQTALTEHLLRMEMQPTLTDLPLLPGVPMAGDSSPSATPAQGEETVPEAVSSPQASSPTKKPCSLIPRGHQSSFWGRKGARAATAPKASVAEAPSTTKTTAKRSKK,not failed
8,SSNQTPYIGSKISLISKLDIRYEGILYTVDTNDSTIALAKVRSFGTEKRPTANPVAARDDVYEYIIFKASDIKDLIVCDTPKMANIGGGLPYDPAIISVSSRSAPASDGAPAASAGSSRAGTPSRNSPLGQIIQNQRPGRGGYQQNFQANRGYNNYRGGFAGGYNNQRGHNNYGVPRVNHREKLKFESDFDFEKANEKFQEVLVDNLEKLNIEDKAEPEVEEKKDAAFYDKKTSFFDNISCESLEKAEGKTGRPDWKKERETNQETFGHNAVRSLNYRRGFGGRGRGGNRGYGGYNNGYQHQHQHRGGYNGGYRQNNGGYRRGGYAPRDNQGNTAAAAEQ,failed
9,SSQQRPARKLPSLLLDPTEETVRRRCRDPINVEGLLPSKIRINLEDNVQYVSMRKALKVKRPRFDVSLVYLTRKFMDLVRSAPGGILDLNKVATKLGVRKRRVYDITNVLDGIDLVEKKSKNHIRWIGSDLSNFGAVPQQKKLQEELSDLSAMEDALDELIKDCAQQLFELTDDKENERLAYVTYQDIHSIQAFHEQIVIAVKAPAETRLDVPAPREDSITVHIRSTNGPIDVYLCEVEQGQTSNKRSEGVGTSSSESTHPEGPEEEENPQQSEELLEVSN,failed
10,SSTFSASDFNSERYSSSRPSYPSDFYKMIDEYHDGERKLLVDVGCGPGTATLQMAQELKPFEQIIGSDLSATMIKTAEVIKEGSPDTYKNVSFKISSSDDFKFLGADSVDKQKIDMITAVECAHWFDFEKFQRSAYANLRKDGTIAIWGYADPIFPDYPEFDDLMIEVPYGKQGLGPYWEQPGRSRLRNMLKDSHLDPELFHDIQVSYFCAEDVRDKVKLHQHTKKPLLIRKQVTLVEFADYVRTWSAYHQWKQDPKNKDKEDVADWFIKESLRRRPELSTNTKIEVVWNTFYKLGKRV,not failed
11,STALIQLYSLCEHAFHRHLGSGSDSRQTIERYSSPKVRRLLQTLRCFKPEEVHTQADGLRRMRHQVDQADFNRLSHTLESKCRMVDQMDQPPTETRALVATLEQILHTTEDRQTNRSAARVTPTPTPAHAKPKPSSGANTAQPRTRRRVY,failed
12,STPSSKAINEVSTEDSNVTVTAVVLTSGRRSIQYNGEQHVIREGELADETGKISYTAWDGFSGDLQPGQTVQLGNAGVREWDGQPELNLGDSTDP,failed
13,STQTDKALYNRLVPLVNGVREFSEIQLSRLKKLGIHKTDPSTLTEEEVRKFARLNIDPATITWQ,not failed
14,SVMCAAIAAGAFAQGQGQGLAGINEATSLMTSYFDPATKLCYAIGAVLGLVGGIKTYGKFSSGDPDTSKTAASWFFACIFLIVAATILRSFF,failed
15,SWKQAVRPCLRLPNFRFDWTSFNVLSAQKRWVKSFSTAVSIKEDPFWSAPLKKVLENHPETQYAYPDSTTVLECARGLVRDDLSSVLVFENVQDKLRWIGIFSERDIVRKVASQGLPLEKTQLKKAYTTRDRVETITVDKTVQDVVDILVSKDVQNIAVLYQKKHGDAFREDCYGVLTSRDLSTFFLSIPENDRSFFEQQTVKDVLESKGLDRSGDNTVYQIHQSVSVDEAIQKMDDHKVGTLLVTQSGK,failed
16,SWNKKNEEKEDFGIIVILWKQVTVKEDGKVPLEPFLTAAKEVLRVVDAFGSGFRIVKNDIAGNIKKLYRANQTVHAETLQELIIAENSPDGLATVALLWLKRAFQFIASFLRRLVVTDKSLEQCVTEAYNCTLRPCHSAVIQKVFWGGVKLAPSRERFYRKLHPDLNIAKAKIEEFLIELHDPLCCIVQFFFQRELEDQCWGDEVYQRKDSSEWLKVSCEQDSV,not failed
17,SYRSTQQITDFTKEILVNGEAVTAFDRQGDLPNVVVTPNFEAGVDQVVDQLAMNDSERDTTAIIGKSLAECEALTKALKARGEQVTLIQTENQRLAPGVIVVPSFLAKGLEFDAVIVWNANQENYQREDERQLLYTICSRAMHELTLVAVGSLSPLLARVNHALYTLNEAK,not failed
18,TAPTLAEEVKQQSDGSVIIEGSANLRDLNKLFNWHLPINEVRTFNGLILEHLEKIPIEGTQFRLNQLNITVLEVADNMVKKVKVELIE,not failed
19,TCIYKLADTVSDEYSLQKIIDFLSSTPQGKQAFQKRPQLGVVDLPKLHQLPTDTLGYVYADQMLQNNLQPLQSHEIDNDYQFFKTHITETHDLWHIVTGADTSILGEIQLEAFYVSQLYASRFWLALLAKNLLKAVIYDIELSTPYMDAISTGWVMAKQAKPLFGLEWNLLWEKPLADVRTSLNIILP,failed
20,TDRARRVIVLAQEEARGLNHNYIGTEHILLGLIHEGEGVAAKALESMGISLEAVRQEVEEIIGHGSEPPAGHIPFTPRAKKVLELSLREGLQMGHKYIGTEFLLLGLIREGDGVAAQVLVKLGADLPRVRQQVIQLLSGYEGGESPENNNEGEAVGAG,failed
21,TEDNIVELDGREWIMTRRQKTRVATNIILLDIPKRIIEKYAPVRKNGHLLPILSNQKMNAYLKEIADLCNIRKPLSFHMARYREFYKHQIINRLYCMSIKGGNEKETSELLYSTLFCHFKEPLFVDCKDSDFFNNMIAIEEL,failed
22,TEKTKAVETTDVALAIDTLVQNGLKALDEMRQLNQEQVDYIVAKASVAALDAHGELALHAVEETGRGVFEDKATKNLFACEHVVNNMRHTKTVGVIEEDDVTGLTLIAEPVGVVCGITPTTNPTSTAIFKSLISLKTRNPIIFAFHPSAQESSAHAARIVRDAAIAAGAPENCVQWIEQPSIDATNALMNHDGIATILATGGNAMVKAAYSCGKPALGVGAGNVPAYVEKSANIRQAAHDIVMSKSFDNGMVCASE,not failed
23,TERMDKVGDALEEVLSKALSQRTITVGVYEAAKLLNVDPDNVVLCLLAADEDDDRDVALQIHFTLIQAFCCENDINILRVSNPGRLAELLLLETDAGPAASEGAEQPPDLHCVLVTNPHSSQWKDPALSQLICFCRESRYMDQWVPVINLPER,failed
24,TERVNLWMHDHGVRRPFRPVVADGYKKTINKNHSVNGSAPNFVHACDAAHLLRTVNAARAEGITQFALVHDSFGSLPSHAARFRQIIREEFVRMYEEHDVLTEVLEQAKCDLDEHNDKLSALVDMRADLTGKLNIKEVLNAEYAFAYP,failed
25,TFVCASAGNHAQGFAFVCRHFGVPGVVFMPVTTPQQKIDKTRMFGAEFITIRLVGDIFDQCYKAAREHVEAIGGVMVPPFDHDDIIEGQATVAAEIAEQLPAGPVADLVVLPVGGGGLAAGVTGYLGDSLSADRFLFCEPEGAPSFRRSLELGGVVTLDQVDNFVDGAAVARIGDLNFAALRRFSPEQVMLLPENAICLTITEMLNVEGVVLEPAGALAITALEALGRDSLEGKIVVAVVSGGNF,failed
26,TGDASKCLATGPGIASTVKTGEEVGFVVDAKTAGKGKVTCTVLTPDGTEAEADVIENEDGTYDIFYTAAKPGTYVIYVRFGGVDIPNSPFTVMATDGEVTAVEEAPVNACP,not failed
27,TGFVGEMYGTGDILRSVSIPSETDKPIIVELAVAAMEELVRMAQTGDPLWLSTDNSVEILNEEEYFRTFPRGIGPKPLGLRSEASRQSAVVIMNHINLVEILMDVNQWSCVFSGIVSRALTLEVLSTGVAGNYNGALQVMTAEFQVPSPLVPTRENYFVRYCKQHSDGSWAVVDVSLDSLRPSTPILRTRRRPSGCLIQELPNGYSKVTWIEHMEVDDRSVHNMYKPLVQSGLAFGAKRWVATLERQCERLASSMASNIPGDLSVITSPEGRKSMLKLAERMVMSFCSGVGASTAHAWTTMSTTGSDDVRVMTRKSMV,failed
28,TGPQGPPGPAGPKGAKGETGPQGPPGPAGPKGAKGDSGVPLSYEFTQKVESSNGTAVFGLLSNGFVEVRITGSYSSDVFNIPYNYRPLKAGTQMALFSTSGVGVAKVGEDKITIQGYSRNAQCSGTVLYPHREF,failed
